Data reported in patent US7264809B1, “Methods of inhibiting platelet activation and recruitment” (Immunex Corporation, priority 1998, dated 2007).
Where a chain is given by its changes, count along the chain named. In names and notes the source's numbering stands. Blank lines part the entries; values can stand above or below the molecule they belong to.

Legend:
[1] = Murine model of stroke (middle cerebral artery occlusion); type: in vivo, mice
Experimental: Anesthetized mice were maintained at 37±2° C. during and for 90 min following surgery. A midline neck incision was made and the right carotid artery exposed. Middle cerebral artery occlusion was accomplished by advancing a 13-mm heat-blunt tipped 6-0 nylon suture via an arteriotomy in the external carotid stump. The external carotid artery was cauterized to secure hemostasis, and arterial flow reestablished. […] Surgical staples were used for wound closure. […]

murine platelets = experiment: Ex vivo aggregation of murine platelets; type: in vivo, C57BL/6J mice; conditions: PRP 1 hour after soluble CD39 4 mg/kg or aspirin 5 mg/kg
Experimental: C57BL/6J mice (6-8 wk) were obtained from Jackson Laboratories (Bar Harbor, Me.). […] 80 μL of 3.8% trisodium citrate was added to each mL of blood. […] The PRP contained 400-700×10^3 platelets per μL. All experiments were completed within 2 hours of blood collection. PRP (200 μL) was preincubated, for 3 min. at 37° C., with 100 μL Tris-buffered saline buffer ([…], 5 mM glucose, pH 7.4) in an aggregometer cuvette (Lumiaggregometer; Chrono-Log, Havertown, Pa.), and the platelet agonists ADP, collagen, or sodium arachidonate were added at the final concentrations indicated.

platelets [2] = experiment: Platelet aggregation in human platelet-rich plasma; type: cell-based
Experimental: After obtaining informed consent from volunteers, blood was collected via plastic tubing using acid citrate-dextrose (38 mM citric acid; 75 mM sodium citrate; 135 mM glucose) as anticoagulant. Where indicated, volunteers had ingested 650 mg acetylsalicylic acid (ASA) 18 h prior to blood donation. […] The stock suspension of PRP was maintained at room temperature under 5% CO2-air. […] Total volumes were adjusted to 300 μl with TSG buffer (Marcus et al., J. Clin. Invest. 88:1690, 1991; Marcus et al., J. Clin. Invest. 99:1351, 1997). […] A mock-treated sample was also prepared in which the FSBA solution was replaced with water. After incubating at 37° for 90 min., the samples were centrifuged in a Centricon-10 filter unit (Amicon Corp.) for 1 hour at 5,500 rpm and buffer exchanged into PBS to remove unreacted material.

platelets [3] = experiment: Ex vivo additive inhibition of platelet aggregation in patient platelet rich plasma; type: cell-based, human; conditions: patient PRP, no SolCD39
[4] = Phosphate release assay for ATPase activity; type: biochemical; conditions: for ATPase activity, CPM × 10^3 (net counts): Table 3, 5-day 1× COS-1 sups; for ATPase activity, CPM Release × 10^3 (net counts): unconcentrated COS-1 CM
Experimental: This example describes an ATPase assay that may be used to track enzyme activity. Samples (approximately 100 μl of either concentrated CM or purified polypeptide) are combined with 20 μl of 10× assay buffer (200 mM HEPES, 1.2 M NaCl, 50 mM KCl, 15 mM CaCl2, 15 mM MgCl2 and 3 mM ATP) and sterile water is added to a final volume of 200 μl. Radiolabeled ATP (0.8 μCi γ [^32P] ATP; Amersham, Arlington Heights, Ill.) is added and the mixture incubated for 20 minutes at 37° C. […] After centrifugation (14K rpm for 10 minutes), the supernatant is assayed for free ^32P using a scintillation counter. Data are expressed as raw counts or net counts, or as picomoles of ATP degraded per minute. […] The transfections were repeated and the CM (10, 20 and 30 μL, unconcentrated) was assayed essentially as described in Example 7. […] ATPase levels in CM from COS-1 cells transfected with pIL2LFlagSolCD39 increased with time in culture over at least 4 days post-transfection. To determine whether activity was affected by removal of the N-terminal FLAG® tag, COS-1 cells were transfected with pIL2LFlagSolCD39 and pIL2LSolCD39 and supernatants (sups) were harvested after 5 days. Samples of 10, 20 and 30 μL of 1× sups were assayed for ATPase activity as described in Example 7. […] The expression of Trim1 and Trim2 constructs was analyzed in COS-1 cells cultured in 10 cm plates. After 5 days of incubation, 1× supernatants were examined via ELISA (using anti-CD39) and the phosphate-release assay described in Example 7. […] Expression levels, however, appeared to be reduced 3-4 fold.

[5] = Phosphate release assay for ATPase activity; type: biochemical; conditions: 100 μL of 10-fold concentrated CM from COS-1 transfectants; 10× buffer with 30 mM cold ATP
[6] = Enzymatic (ATPase and ADPase) activity of site-directed mutants; type: biochemical
Experimental: Mutants were assayed for enzymatic (ATPase and ADPase) and platelet inhibitory (dose-dependent inhibition of platelet aggregation) activities. For one series of mutants, residues within the conserved apyrase regions were replaced with alanine.

intracerebral hemorrhage ([1]; following stroke, spectrophotometric): increased
Molecule: CC(=O)Oc1ccccc1C(=O)O [Aspirin, acetylsalicylic acid, reference compound]
postischemic cerebral perfusion / blood flow ([1]; 24 hours after stroke induction): no improvement
cerebral infarct volume ([1]; preoperative administration, aspirin 5 mg/kg): not statistically significant
ex vivo platelet aggregation, collagen (murine platelets; 2.5 μg/ml collagen): strongly aggregated
ex vivo platelet aggregation, ADP (murine platelets; 10 μM ADP): strongly aggregated
ex vivo platelet aggregation, arachidonate (murine platelets; 0.1 mM sodium arachidonate): blocked

Molecule: COc1ccc2c(c1)c(CC(=O)O)c(C)n2C(=O)c1ccc(Cl)cc1 [indomethacin, reference compound]
platelet responsiveness to 5 μM ADP (platelets [2]; PRP with or without 10 μM indomethacin, CM containing solCD39 from COS-1 and CHO cells): partial reversal

B1: Abciximab: platelet-specific chimeric antibody, glycoprotein IIb/IIIa antagonist, trade name ReoPro (antibody, chains of the INN, looked up, V domains shown)
VH: EVQLQQSGTVLARPGASVKMSCEASGYTFTNYWMHWVKQRPGQGLEWIGAIYPGNSDTSYIQKFKGKAKLTAVTSTTSVYMELSSLTNEDSAVYYCTLYDGYYVFAYWGQGTLVTVSA
VL: EIVLTQSPVTLSVTPGDSVSLSCRASRDISNNLHWFQQTSHESPRLLIKYASQSMSGIPSRFSGSGSGTDFTLSINSVETEDFGMYFCQQTNSWPYTFGGGTKLEIK
modifications: Fab
notes: platelet-specific chimeric antibody, glycoprotein IIb/IIIa antagonist, trade name ReoPro
Platelet aggregation, baseline (platelets [3]; ADP, clopidogrel, ticlopidine, abciximab groups also received aspirin): 0 ± 0 arbitrary units
Platelet aggregation, baseline (platelets [3]; Collagen): 0 ± 0 arbitrary units
Platelet aggregation, baseline (platelets [3]; TRAP): 46 ± 6 arbitrary units

Activity (pmol ATP/min/μg) × 10^3 ([4]; specific activity in COS-1 CM, concentration by ELISA): 8.38 (pmol ATP/min/μg) × 10^3
B2: pIL2LTrim1: huIL2 leader joined to solCD39 with an intervening alanine residue (SEQ ID NO:27) (protein)
chain: MALWIDRMQLLSCIALSLALVTNSATQNKALPENVKYGIVLDAGSSHTSLYIYKWPAEKENDTGVVHQVEECRVKGPGISKFVQKVNEIGIYLTDCMERAREVIPRSQHQETPVYLGATAGMRLLRMESEELADRVLDVVERSLSNYPFDFQGARIITGQEEGAYGWITINYLLGKFSQKTRWFSIVPYETNNQETFGALDLGGASTQVTFVPQNQTIESPDNALQFRLYGKDYNVYTHSFLCYGKDQALWQKLAKDIQVASNEILRDPCFHPGYKKVVNVSDLYKTPCTKRFEMTLPFQQFEIQGIGNYQQCHQSILELFNTSYCPYSQCAFNGIFLPPLQGDFGAFSAFYFVMKFLNLTSEKVSQEKVTEMMKKFCAQPWEEIKTSYAGVKEKYLSEYCFSGTYILSLLLQGYHFTADSWEHIHFIGKIQGSDAGWTLGYMLNLTNMIPAEQPLSTPLSHST

B3: pIL2LFlagSolCD39: N-terminally FLAG-tagged solCD39 with human proinsulin/IL2 leader and 12 mature IL2 residues (SEQ ID NO:25) (protein)
chain: MALWIDRMQLLSCIALSLALVTNSAPTSSSTKKTQLTSSGDYKDDDDKTQNKALPENVKYGIVLDAGSSHTSLYIYKWPAEKENDTGVVHQVEECRVKGPGISKFVQKVNEIGIYLTDCMERAREVIPRSQHQETPVYLGATAGMRLLRMESEELADRVLDVVERSLSNYPFDFQGARIITGQEEGAYGWITINYLLGKFSQKTRWFSIVPYETNNQETFGALDLGGASTQVTFVPQNQTIESPDNALQFRLYGKDYNVYTHSFLCYGKDQALWQKLAKDIQVASNEILRDPCFHPGYKKVVNVSDLYKTPCTKRFEMTLPFQQFEIQGIGNYQQCHQSILELFNTSYCPYSQCAFNGIFLPPLQGDFGAFSAFYFVMKFLNLTSEKVSQEKVTEMMKKFCAQPWEEIKTSYAGVKEKYLSEYCFSGTYILSLLLQGYHFTADSWEHIHFIGKIQGSDAGWTLGYMLNLTNMIPAEQPLSTPLSHST
modifications: CDS (1)..(1461)
ATPase activity, CPM × 10^3 (net counts) ([4]; 10 μL): 23.6 CPM × 10^3
ATPase activity, CPM × 10^3 (net counts) ([4]; 20 μL): 40.2 CPM × 10^3
ATPase activity, CPM × 10^3 (net counts) ([4]; 30 μL): 54.4 CPM × 10^3
ATPase activity, CPM Release × 10^3 (net counts) ([4]; 10 μL): 24.71 CPM × 10^3
ATPase activity, CPM Release × 10^3 (net counts) ([4]; 20 μL): 43.92 CPM × 10^3
ATPase activity, CPM Release × 10^3 (net counts) ([4]; 30 μL): 56.93 CPM × 10^3
ATPase activity, CPM Release × 10^3 (raw counts) [5]: 99.96 CPM × 10^3

B4: E174A: CD39 mutant, Glutamate174 replaced with alanine (protein, UniProt P49961 1-510, looked up, variant E174A)
Ectonucleoside triphosphate …: MEDTKESNVKTFCSKNILAILGFSSIIAVIALLAVGLTQNKALPENVKYGIVLDAGSSHTSLYIYKWPAEKENDTGVVHQVEECRVKGPGISKFVQKVNEIGIYLTDCMERAREVIPRSQHQETPVYLGATAGMRLLRMESEELADRVLDVVERSLSNYPFDFQGARIITGQEAGAYGWITINYLLGKFSQKTRWFSIVPYETNNQETFGALDLGGASTQVTFVPQNQTIESPDNALQFRLYGKDYNVYTHSFLCYGKDQALWQKLAKDIQVASNEILRDPCFHPGYKKVVNVSDLYKTPCTKRFEMTLPFQQFEIQGIGNYQQCHQSILELFNTSYCPYSQCAFNGIFLPPLQGDFGAFSAFYFVMKFLNLTSEKVSQEKVTEMMKKFCAQPWEEIKTSYAGVKEKYLSEYCFSGTYILSLLLQGYHFTADSWEHIHFIGKIQGSDAGWTLGYMLNLTNMIPAEQPLSTPLSHSTYVFLMVLFSLVLFTVAIIGLLIFHKPSYFWKDMV
enzymatic activity of mutant ([6]; alanine replacement in conserved apyrase region): completely devoid
effect on platelet responsiveness (platelets [2]; mutant): no effect

B5: S218A: CD39 mutant, Serine218 replaced with alanine (protein, UniProt P49961 1-510, looked up, variant S218A)
Ectonucleoside triphosphate …: B4 Ectonucleoside triphosphate … with A174E, S218A
ADPase activity retained ([6]; mutant): less than 10%
